Relative peak shift value data for one molecule are collected here from US20240033291A1.

Where only a bound is given, the exact number is not on record here.

Test [1] addresses mesothelin on the cell membrane of the pancreatic cancer cell line AsPC-1 (mesothelin-overexpressing cell line) (human) (UniProt Q13421). Description: flow cytometry, phage on AsPC-1 cells against K562 control cells, anti-M13-FITC. In general terms: A flow cytometer gives signals particle by particle.
Test [2] has the same target. Kind of test: flow cytometry, phage on AsPC-1 cells, anti-M13-FITC.

B1: MSLN3 phage clone (scFv displayed on phage, KBIO human synthetic scFv phage display library KscFv-I) (scFv, V domains shown, not shown: small tags and cut ends; large carriers)
VH: EVQLVESGGGLVQPGGSLRLSCAASGFTFSDYAMSWVRQAPGKGLEWVSAISSSGGTTYYADSVKGRFTISRDNSKNTLYLQMNSLRAEDTAVYYCAKEEEGEWREYFDVWGQGTLVTVSS
VL: DIQMTQSPSSLSASVGDRVTITCRASQSISSYLNWYQQKPGKAPKLLIYATSTLQSGVPSRFSGSGSGTDFTLTISSLQPEDFATYYCQQSYTFPYTFGQGTKVEIK
With B1, the figures for the relative peak shift value in test [1] and in test [2] were 23.8% and > 3%, respectively.
